Tests used:
[1] = target: T1, anti-VEGF/ANG2 antibody (IgG1 subclass with mutations P329G/L234A/L235A/I253A/H310A/H435A); experiment: ELISA assay C, tracer FcγRI-Dig, target 2 ng/mL
T1 construct: Format of the bispecific antibody not described; Positions are EU numbers, not positions on the UniProt entry; also called sample 1; antibody 1

[2] = target: T2, anti-VEGF/ANG2 antibody (wild-type IgG1 subclass) (UniProt P01857-1 1-330 = IgG part); experiment: ELISA assay C, tracer FcγRI-Dig, target 2 ng/mL
T2 construct: also called sample 5; antibody 5

[3] = target: T3, anti-P-Selectin antibody (IgG4 subclass with mutations S228P/L235E); experiment: ELISA assay C, tracer FcγRI-Dig, target 2 ng/mL
T3 construct: Positions are EU numbers; also called sample 4; antibody 4

[4] = target: T4, anti-VEGF/ANG2 antibody (IgG1 subclass with mutations P329G/L234A/L235A); experiment: ELISA assay C, tracer FcγRI-Dig, target 2 ng/mL
T4 construct: Positions are EU numbers; also called sample 2; antibody 2

[5] = target: T5, anti-IGF-1R antibody (IgG1 subclass with mutations I253A/H310A/H435A); experiment: ELISA assay C, tracer FcγRI-Dig, target 2 ng/mL
T5 construct: Positions are EU numbers; also called sample 3; antibody 3

[6] = target: T1, anti-VEGF/ANG2 antibody (IgG1 subclass …); experiment: ELISA assay C, tracer FcγRI-Dig, target 0 ng/mL (blank)
[7] = target: T2, anti-VEGF/ANG2 antibody (wild-type IgG1 …); experiment: as above
[8] = target: T3, anti-P-Selectin antibody (IgG4 subclass …); experiment: as above
[9] = target: T4, anti-VEGF/ANG2 antibody (IgG1 subclass …); experiment: as above
[10] = target: T5, anti-IGF-1R antibody (IgG1 subclass …); experiment: as above
[11] = target: T2, anti-VEGF/ANG2 antibody (wild-type IgG1 …); experiment: ELISA assay B, tracer M1.7.10-Dig, target 100 ng/mL
Procedure: Biotinylated anti-PG Fc-region antibody or biotinylated anti-AAA Fc-region antibody, respectively, was bound to the wells of a streptavidin-coated multi-well plate (SA-MTP) to produce a capture plate. Excess of unbound antibody was removed by washing. Sample/standard antibodies spiked in human and cynomolgus monkey serum (10% final concentration) was added to wells of the SA-MTP multi-well plate coated with the capture plate and incubated for 1 hour at room temperature. After washing, the wells were incubated with digoxygenylated anti-human kappa antibody M1.7.10 (see e.g. WO 2011/048043, incorporated herein by reference). After washing the bound digoxygenylated anti-human kappa antibody complex was incubated with a horseradish peroxidase (HRP) labelled anti-digoxygenin antibody. After another washing step, an ABTS solution was added to the wells and incubated. The product of the color reaction was measured by Elisa reader at 405 nm wavelength (reference wavelength: 490 nm). Absorbance values of each sample or standard were determined in triplicates.

[12] = target: T1, anti-VEGF/ANG2 antibody (IgG1 subclass …); experiment: bridging ELISA, target-Bi capture and target-Dig tracer, binder 125 ng/mL, against the blank
Procedure: A dilution series of the monomeric full-length anti-PG Fc-region antibody clone 1.3.17 was prepared as standards for checking the possibility of generating a standard curve.
Biotinylated anti-VEGF/ANG2 antibody with the mutations P329G, L234A, L235A, I253A, H310A, and H435A and digoxygenylated anti-VEGF/ANG2 antibody with the mutations P329G, L234A, L235A, 1253A, H310A, and H435A were pre-incubated with the standards overnight at room temperature. After pre-incubation, the samples were transferred to a streptavidin-coated multi-well plate and incubated for 1 hour at room temperature. Excess of unbound antibody was removed by washing. After a washing step the bound digoxygenylated complexes comprising biotinylated and digoxygenylated anti-VEGF/ANG2 antibody with the mutations P329G, L234A, L235A, 1253A, H310A, and H435A as well as the monomeric, full-length anti-PG Fc-region antibody M1.3.17 (SEQ ID NO: 03 and 04) were detected with an horseradish peroxidase (HRP) labelled anti-digoxygenin-antibody. After a washing step and upon incubation with the respective substrate the HRP present in the formed complex catalyzes the conversion of ABTS into a colored product. The signal was measured by Elisa reader at 405 nm wavelength (reference wavelength: 490 nm). Absorbance values of each serum sample were determined in triplicates.

[13] = target: T6, drug antibody (capture and tracer of the bridging immunoassay of FIGS. 2, 7 and 8; not named); experiment: bridging immunoassay, drug antibody as capture and tracer, binder at 2,500 ng/ml
T6 construct: also called the same but differently derivatized drug antibodies

[14] = target: T6, drug antibody (capture and tracer of …); experiment: bridging immunoassay, drug antibody as capture and tracer, binder at 1000 ng/mL

| Binder | signal [OD405 nm] [1] [OD405 nm] | signal [OD405 nm] [2] [OD405 nm] | signal [OD405 nm] [3] [OD405 nm] | signal [OD405 nm] [4] [OD405 nm] | signal [OD405 nm] [5] [OD405 nm] | signal [OD405 nm] [6] [OD405 nm] | signal [OD405 nm] [7] [OD405 nm] | signal [OD405 nm] [8] [OD405 nm] | signal [OD405 nm] [9] [OD405 nm] | signal [OD405 nm] [10] [OD405 nm] | signal [OD405 nm] [11] [OD405 nm] | signal to noise ratio [12] | signal-to-noise ratio [13] | signal-to-noise ratio (S/N) [14] |
| --- | --- | --- | --- | --- | --- | --- | --- | --- | --- | --- | --- | --- | --- | --- |
| anti-AAA variant Fc-region antibody M1.6.22 (antibody, V domains shown, Murine variable domains; also called M1.6.22-Bi) VH: EVQLVESGGDLVKPGGSLKLSCAASGFTFSSYGMSWVRQTPDKRLEWVATISSGGSYIYYPDSVKGRFTISRDNAKNTLYLQMSSLKSEDTAMYYCARLGMITTGYAMDYWGQGTSVTVSS VL: DVLMTQTPLSLPVSLGDQASISCRSSQTIVHSTGHTYLEWFLQKPGQSPKLLIYKVSNRFSGVPDRFSGSGSGTDFTLKISRVEAEDLGVYYCFQGSHVPYTFGGGTKLEIK | 0.077 | 0.077 | 0.067 | 0.072 | 0.082 | 0.077 | 0.069 | 0.077 | 0.064 | 0.069 | 0.061 |  |  |  |
| anti-PG variant Fc-region antibody M1.3.17 (antibody, V domains shown, Monomeric, bivalent full-length antibody with murine variable domains; Biotinylated when used as capture antibody; also called anti-PG antibody clone 1.3.17; M1.3.17-Bi) VH: EVKLLESGGGLVQPGGSLKLSCAASGIDFRRYWMNWVRQAPGKGLEWIGEIDPDSSTINYTPSLKDKFIISRDNAKNTMYLQMRKVRSEDTALYYCARPYDYGAWFAYWGQGTLVTVSA VL: QAVVTQESALTTSPGETVTLTCRSTTGAVTTSNYANWVQEKPDHLFTGLIGGTNKRAPGVPARFSGSLIGDKAALTITGAQTEDEAIYFCALWYSDHWVFGGGTKLTVL | 1.17 | 1.19 | 1.19 | 1.22 | 1.26 | 1.18 | 1.2 | 1.19 | 1.23 | 1.22 | 0.043 | 1.85 |  |  |
| anti-PG variant Fc-region antibody M1.7.24 (monomeric, bivalent) (antibody, V domains shown, Full-length Y-shaped antibody with murine variable domains; Biotinylated when used as capture antibody; also called anti-PG antibody clone 1.7.24; M1.7.24-Bi) VH: EVKLLESGGGLVQPGGSLKLSCAASGFDFSRYWMNWVRQAPGKGLEWIGEITPDSSTINYTPSLKDKFIISRDNAKNTLYLQMIKVRSEDTALYYCVRPYDYGAWFASWGQGTLVTVSA VL: QAVVTQESALTTSPGETVTLTCRSSTGAVTTSNYANWVQEKPDHLFTGLIGGTNKRAPGVPARFSGSLIGDKAALTITGAQTEDEAIYFCALWYSNHWVFGGGTKLTVL | 0.085 | 0.058 | 0.056 | 0.093 | 0.074 | 0.076 | 0.073 | 0.076 | 0.092 | 0.086 | 0.047 |  | > 2 | 3.8 |

Reference: patent publication US20240410900A1 (Hoffmann-La Roche, published 2024)
